From patent US20220220218A1 (JIANGSU HENGRUI MEDICINE, published 2022)
Changes are numbered by the printed parent chain.

T1: CD73-Myc-His (a fusion protein of the CD73 mature protein extracellular domain and Myc tag and His tag) (human, UniProt P21589 27-547, biotinylated with a kit (sites not given))
T1 construct: Captured on streptavidin-coated plates in the ELISA; also called biotinylated CD73-myc-his fusion protein; human CD73 protein
T1 sequence: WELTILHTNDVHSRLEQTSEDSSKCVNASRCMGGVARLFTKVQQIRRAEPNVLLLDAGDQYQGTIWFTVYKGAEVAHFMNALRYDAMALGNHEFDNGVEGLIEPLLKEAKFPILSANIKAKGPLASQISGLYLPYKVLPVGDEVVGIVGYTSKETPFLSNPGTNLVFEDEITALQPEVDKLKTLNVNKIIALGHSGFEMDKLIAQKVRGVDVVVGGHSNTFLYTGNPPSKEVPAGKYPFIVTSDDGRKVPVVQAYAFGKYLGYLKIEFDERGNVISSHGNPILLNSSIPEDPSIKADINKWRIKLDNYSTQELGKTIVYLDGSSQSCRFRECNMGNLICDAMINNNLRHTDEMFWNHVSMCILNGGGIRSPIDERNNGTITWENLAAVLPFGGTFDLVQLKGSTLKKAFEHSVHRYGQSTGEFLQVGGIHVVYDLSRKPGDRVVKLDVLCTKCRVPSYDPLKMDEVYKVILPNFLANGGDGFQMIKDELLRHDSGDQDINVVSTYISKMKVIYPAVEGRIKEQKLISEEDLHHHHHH

T2: human CD73 (huCD73) protein, antigen of the Biacore assay (human, UniProt P21589 27-547, limits assumed)
T2 construct: also called human CD73 antigen
T2 sequence (looked up): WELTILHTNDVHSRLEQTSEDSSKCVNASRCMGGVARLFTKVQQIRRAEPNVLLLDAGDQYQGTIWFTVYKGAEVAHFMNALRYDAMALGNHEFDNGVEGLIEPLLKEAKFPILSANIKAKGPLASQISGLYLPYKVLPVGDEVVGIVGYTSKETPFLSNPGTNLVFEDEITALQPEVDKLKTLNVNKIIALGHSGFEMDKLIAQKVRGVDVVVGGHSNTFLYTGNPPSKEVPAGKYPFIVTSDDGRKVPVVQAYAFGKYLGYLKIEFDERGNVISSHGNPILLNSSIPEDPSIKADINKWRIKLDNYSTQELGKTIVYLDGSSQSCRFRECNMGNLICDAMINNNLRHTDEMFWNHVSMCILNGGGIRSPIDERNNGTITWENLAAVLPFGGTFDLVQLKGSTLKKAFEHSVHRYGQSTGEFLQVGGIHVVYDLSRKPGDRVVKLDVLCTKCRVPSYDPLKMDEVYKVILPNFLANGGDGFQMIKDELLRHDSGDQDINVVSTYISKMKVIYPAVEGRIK

B1: Hab110.21 (antibody, human IgG1, kappa, V domains shown)
VH: EVQLVQSGAEVKKPGASVKVSCKASGYTFTSYTMHWVRQAPGQRLEWMGYINPNSFYIEYNQKFKDRVTITRDTSASTAYMELSSLRSEDTAVYYCARGDYDLFYDMDNWGQGTTVTVSS
VL: DIQMTQSPSSLSASVGDRVTITCRASQDIGNSLNWLQQKPGKAIKRLIYATFRLDSGVPSRFSGSRSGTEYTLTISSLQPEDFATYYCQQYASFPWTFGGGTKVEIKR
notes: also called humanized antibody of mab110
B2: Hab127.31d (antibody, human IgG1, kappa, V domains shown)
VH: EVQLVQSGAEVKKPGASVKVSCKASGYTFTAYFMNWVRQAPGQGLEWMGRIYHNKGDTFYSQKFKGRVTMTVDKSTSTVYMELSSLRSEDTAVYYCATSYVGDWGQGTTVTVSS
VL: B1 VL with N31D, K42G, I44L, F52S, R53S, R66G, Q89L
notes: also called humanized antibody of mab127
B3: Hab108.64 (antibody, human IgG1, kappa, V domains shown)
VH: EVTLKQSGPGLVKPTETLTLTCTVSGFSLSSYGIQWVRQPPGKGLEWLGVIWSGGSADYNAAFISRLTISKDTSKSQVVLTMTNMDPVDTATYYCAGQYGSVWGQGTLVTVSS
VL: DIQMTQSPSSLSASVGDRVTITCRASQDIGDRLNWLQQKPGGAIKRLIYATSSLDSGVPKRFSGSGSGTEYTLTISSLQPEDFATYYCLQYAGSWTFGGGTKVEIKR
notes: also called humanized antibody of mab108
B4: CPX006 (antibody CPX-006 disclosed in patent application WO2018013611) (antibody, V domains shown)
VH: QVQLVQSGAEVEKPGASVKVSCKASGYTFTSYWITWVRQAPGQGLEWMGDIYPGSGNTNYNEKFKTRVTITADKSTSTAYMELSSLRSEDTAVYYCAKEGGLTTEDYALDYWGQGTLVTVSS
VL: EIVLTQSPATLSLSPGERATLSCRASKNVSTSGYSYMHWYQQKPGQAPRLLIYLASNLESGIPPRFSGSGYGTDFTLTINNIESEDAAYYFCQHSRELPFTFGQGTKVEIKR

Assays:
[1] = molecular target: T1, CD73-Myc-His (a fusion protein of the …); test: ELISA; biotinylated CD73-myc-his captured on streptavidin plate
Description: The binding of anti-CD73 antibodies to human CD73 protein was tested by ELISA assay. The biotinylated CD73 fusion protein was immobilized onto a 96-well microtiter plate by binding to the Streptavidin coated on the microtiter plate. The signal strength after the addition of the antibody was used to determine the binding activity of the antibody to CD73. The specific experimental procedures were as follows:
Streptavidin (Sigma, Cat No. S4762-5MG) was diluted with PBS, pH7.4 (Shanghai BasalMedia, Cat No. B320) buffer to a concentration of […], was added into the 96-well microtiter plate (Corning, Cat No. CLS3590-100EA), 50 μl/well, and incubated in an incubator at 37° C. for 2 hours. The liquid was discarded, 250 μl/well blocking solution (5% skim milk (BD skim milk, Cat No. 232100) diluted in PBS) was added, and incubated in an incubator at 37° C. for 3 hours or at 4° C. overnight (16-18 hours) for blocking. After blocking, the blocking solution was discarded; the plate was washed for 5 times with PBST buffer (PBS containing 0.05% tween-20, pH7.4), 50 μl/well of biotinylated CD73-myc-his fusion protein (Tojin Chemical, Cat No. LK03, biotinylation method was according to the kit's instruction) diluted with sample diluent (PBS containing 1% BSA, pH7.4) was added, and incubated in an incubator at 37° C. 1 hour or at 4° C. overnight. After the incubation was finished, the reaction solution was removed from the microtiter plate, the plate was washed for 5 times with PBST, 50 μl/well of various concentrations of each of the test antibodies (purified hybridoma antibodies or humanized antibodies, diluted with sample diluent) were added, and incubated in an incubator at 37° C. for 1 hour. After the incubation was finished, the plate was washed for 5 times with PBST, 50 µl/well of HRP-labeled goat anti-mouse secondary antibody (Jackson Immuno Research, Cat No. 115-035-003) or goat anti-human secondary antibody (Jackson Immuno Research, Cat No. 109-035-003) diluted with sample diluent was added, and incubated at 37° C. for 1 hour. The plate was washed for 5 times with PBST, 50 μl/well of TMB chromogenic substrate (KPL, Cat No. 52-00-03) was added, incubated at room temperature for 5-10 min, and 50 μl/well of 1M H₂SO₄ was added to stop the reaction.

[2] = molecular target: T2, human CD73 (huCD73) protein, antigen of …; test: SPR Biacore T200; antibody captured on Protein A chip, CD73 in flow; 1:1 Langmuir
Source text: In this experiment, Biacore instrument was used to determine the affinity of the humanized anti-CD73 antibodies to be tested with human CD73 (huCD73) and monkey CD73 (cynoCD73).
A certain amount of test antibody was affinity-captured with Protein A biosensing chip (Cat. #29127556, GE), and then a certain concentration of human or monkey CD73 antigen was allowed to flow through the surface of the chip. The reaction signals were detected in real time with Biacore instrument (Biacore T200, GE) to generate a binding and dissociation curve. At the end of each cycle, after the dissociation was completed, the biosensor chip was washed and regenerated with Glycine-HCl, pH1.5 (Cat. #BR-1003-54, GE). The running buffer for the assay was 1×HBS-EP buffer solution (Cat. #BR-1001-88, GE).
The data obtained from the experiment was fitted against (1:1) Langmuir model using GE Biacore T200 Evaluation version 3.0 software, and the affinity values were obtained, as shown in Table 12 and Table 13 for details.

Binder | EC50 [1] [nM] | Kd [2] [nM] | koff [2] [s⁻¹] | kon [2] [M⁻¹ s⁻¹]
B1 | 0.026 | 0.0944 | 6.14e-05 | 650000
B2 | 0.026 | 0.257 | 5.81e-05 | 226000
B3 | 0.047 | 0.412 | 9.24e-05 | 224000
B4 | 0.088 | 1.85 | 0.000368 | 199000
